According to patent US20070253966A1:

Molecular target: human GLP-1 receptor (human) (UniProt P43220)
Experiment: cell-based or functional assay

UniProt P43220, sequence (P43220 24-463): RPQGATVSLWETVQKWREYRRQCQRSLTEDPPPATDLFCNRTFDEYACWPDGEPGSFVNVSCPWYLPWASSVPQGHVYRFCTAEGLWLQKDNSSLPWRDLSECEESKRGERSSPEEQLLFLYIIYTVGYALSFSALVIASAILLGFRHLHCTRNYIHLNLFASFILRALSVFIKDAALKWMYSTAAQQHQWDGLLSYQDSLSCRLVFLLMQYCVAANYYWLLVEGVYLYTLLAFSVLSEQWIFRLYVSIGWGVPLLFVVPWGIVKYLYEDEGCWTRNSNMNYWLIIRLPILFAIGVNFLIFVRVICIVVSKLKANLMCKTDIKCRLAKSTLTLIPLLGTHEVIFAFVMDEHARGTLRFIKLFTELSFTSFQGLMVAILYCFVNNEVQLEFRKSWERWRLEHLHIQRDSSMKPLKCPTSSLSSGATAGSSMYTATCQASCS

Substance	Activity (EC50 relative to Val^8-GLP-1(7-37)OH), CRE-BLAM beta-lactamase reporter in HEK-293 cells expressing human GLP-1 receptor [%]	Activity (EC50 relative to Val^8-GLP-1(7-37)OH, corrected for 2-fold molarity of the dimer), CRE-Luciferase reporter in HEK-293 cells stably expressing human GLP-1 receptor [%]	Activity (EC50 relative to Val^8-GLP-1(7-37)OH), CRE-Luciferase reporter in HEK-293 cells stably expressing human GLP-1 receptor [%]
Gly^8-Glu^22-GLP-1(7-37)-1.5L-IgG4 (S228P, F234A, L235A) (from UniProt P01275 98-128) (Fc fusion)	314	595	
Gly^8-Glu^22-GLP-1(7-37)-2L-IgG4 (S228P, F234A, L235A) (from UniProt P01275 98-128) (Fc fusion)	301	535	
Val^8-GLP-1(7-37)OH (from UniProt P01275 21-180) (peptide)	100		100
Gly^8-Glu^22-GLP-1(7-37)-1L-IgG4 (S228P, F234A, L235A) (from UniProt P01275 98-128) (Fc fusion)	468	1120	
